Legend:
[1] = molecular target: the molecule itself; assay: cross-linking; in vitro disulphide linkage: 1.5 μM PhPINK1 or TcPINK1 with 2 mM H2O2 in 25 mM Tris (pH 7.4), 150 mM NaCl, 22 °C, time course; non-reducing gel, Coomassie
[2] = molecular target: T1, Ser202-phosphorylated PhPINK1 (amino acids 115–575), monomeric (Pediculus humanus corporis, UniProt E0W1I1 115-575, phosphoserine at 202); assay: SEC + other: Phos-tag SDS–PAGE; Phos-tag analysis of the oligomer species from the analytical SEC of the mixed proteins; settings: both partners purified
T1 construct: PINK1 of Pediculus humanus corporis, amino acids 115–575, wild type, autophosphorylated at Ser202 after dephosphorylation; For the analytical SEC the monomer fractions of the SEC run were pooled; also called phospho-PhPINK1; monomeric phosphorylated PhPINK1; not shown: GST, N-terminal, cleaved
T1 sequence (looked up): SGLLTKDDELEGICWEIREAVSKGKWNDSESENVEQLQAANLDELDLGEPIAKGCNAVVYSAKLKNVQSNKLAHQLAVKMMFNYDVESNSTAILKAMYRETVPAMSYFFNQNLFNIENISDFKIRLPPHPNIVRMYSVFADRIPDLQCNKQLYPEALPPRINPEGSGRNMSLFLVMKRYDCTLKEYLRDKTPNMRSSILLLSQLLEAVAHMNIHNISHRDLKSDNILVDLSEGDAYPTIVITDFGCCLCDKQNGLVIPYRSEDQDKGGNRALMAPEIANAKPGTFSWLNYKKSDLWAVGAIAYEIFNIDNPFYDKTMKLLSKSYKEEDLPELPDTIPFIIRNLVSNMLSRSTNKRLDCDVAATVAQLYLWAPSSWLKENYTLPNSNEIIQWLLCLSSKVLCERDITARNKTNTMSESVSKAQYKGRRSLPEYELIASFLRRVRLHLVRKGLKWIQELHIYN

[3] = molecular target: the molecule itself; assay: SEC-MALS; Superdex 200 Increase 10/300 GL; 25 mM Tris (pH 8.5), 150 mM NaCl, 5% (v/v) glycerol, 2 mM TCEP; 100 µl of purified protein at 1 mg ml^−1, 0.5 ml min^−1

B1: TcPINK1(T172C/D359A) (enzyme, Tribolium castaneum, UniProt D6WMX4 117-570, looked up)
chain: TGILTKEEELEGVCWEIREAISKIKWQYYDIDESRFESNPITLNDLSLGKPIAKGCNGVVYSAKVKDDETDDNKYPFALKMMFNYDIQSNSMEILKAMYRETVPARMYYSNHDLNNWEIELANRRKHLPPHPNIVAIFSVFTDLIQELEGSKDLYPAALPPRLHPEGEGRNMSLFLLMKRYDCNLQSFLSTAPSTRTSLLLLAQLLEGVAHMTAHGIAHRDLKSDNLLLDTSEPESPILVISAFGCCLADKTNGLSLPYTSYEMDKGGNTALMAPEIICQKPGTFSVLNYSKADLWAVGAIAYEIFNCHNPFYGPSRLKNFNYKEGDLPKLPDEVPTVIQALVANLLKRNPNKRLDPEVAANVCQLFLWAPSTWLKPGLKVPTSGEILQWLLSLTTKVLCEGKINNKSFGEKFTRNWRRTYPEYLLISSFLCRAKLANVRNALHWIQENLPELD
notes: PINK1 of Tribolium castaneum with T172C and D359A; also called TcPINK1 with an equivalent T172C mutation; source: E. coli Rosetta2 (DE3) pLacI, purified (Glutathione Sepharose, 3C cleavage, SEC); not shown: GST, N-terminal, cleaved
binding result [1]: binds

B2: PhPINK1(D334A) (amino acids 115–575), unphosphorylated (enzyme)
chain: SGLLTKDDELEGICWEIREAVSKGKWNDSESENVEQLQAANLDELDLGEPIAKGCNAVVYSAKLKNVQSNKLAHQLAVKMMFNYDVESNSTAILKAMYRETVPAMSYFFNQNLFNIENISDFKIRLPPHPNIVRMYSVFADRIPDLQCNKQLYPEALPPRINPEGSGRNMSLFLVMKRYDCTLKEYLRDKTPNMRSSILLLSQLLEAVAHMNIHNISHRALKSDNILVDLSEGDAYPTIVITDFGCCLCDKQNGLVIPYRSEDQDKGGNRALMAPEIANAKPGTFSWLNYKKSDLWAVGAIAYEIFNIDNPFYDKTMKLLSKSYKEEDLPELPDTIPFIIRNLVSNMLSRSTNKRLDCDVAATVAQLYLWAPSSWLKENYTLPNSNEIIQWLLCLSSKVLCERDITARNKTNTMSESVSKAQYKGRRSLPEYELIASFLRRVRLHLVRKGLKWIQELHIYN
notes: pOPINK vector, GST tag removed with 3C PreScission protease; also called unphosphorylated PhPINK1(D334A); monomeric PhPINK1(D334A); source: E. coli Rosetta2 (DE3) pLacI, purified (Glutathione Sepharose, 3C cleavage, SEC); not shown: GST, N-terminal, cleaved
stoichiometry N [2]: 1

B3: PhPINK1(D357A) (amino acids 115–575) (enzyme)
chain: SGLLTKDDELEGICWEIREAVSKGKWNDSESENVEQLQAANLDELDLGEPIAKGCNAVVYSAKLKNVQSNKLAHQLAVKMMFNYDVESNSTAILKAMYRETVPAMSYFFNQNLFNIENISDFKIRLPPHPNIVRMYSVFADRIPDLQCNKQLYPEALPPRINPEGSGRNMSLFLVMKRYDCTLKEYLRDKTPNMRSSILLLSQLLEAVAHMNIHNISHRDLKSDNILVDLSEGDAYPTIVITAFGCCLCDKQNGLVIPYRSEDQDKGGNRALMAPEIANAKPGTFSWLNYKKSDLWAVGAIAYEIFNIDNPFYDKTMKLLSKSYKEEDLPELPDTIPFIIRNLVSNMLSRSTNKRLDCDVAATVAQLYLWAPSSWLKENYTLPNSNEIIQWLLCLSSKVLCERDITARNKTNTMSESVSKAQYKGRRSLPEYELIASFLRRVRLHLVRKGLKWIQELHIYN
notes: Forms a dodecamer (two rings of three dimers); also called oligomeric PhPINK1(D357A); PhPINK1(D357A) dodecamer; source: E. coli Rosetta2 (DE3) pLacI, purified (Glutathione Sepharose, 3C cleavage, Mono Q for EM, SEC); not shown: GST, N-terminal, cleaved
stoichiometry N [3]: 2

B4: PhPINK1 (amino acids 143–575) (domain or fragment, Pediculus humanus corporis, UniProt E0W1I1 143-575, looked up)
chain: SESENVEQLQAANLDELDLGEPIAKGCNAVVYSAKLKNVQSNKLAHQLAVKMMFNYDVESNSTAILKAMYRETVPAMSYFFNQNLFNIENISDFKIRLPPHPNIVRMYSVFADRIPDLQCNKQLYPEALPPRINPEGSGRNMSLFLVMKRYDCTLKEYLRDKTPNMRSSILLLSQLLEAVAHMNIHNISHRDLKSDNILVDLSEGDAYPTIVITDFGCCLCDKQNGLVIPYRSEDQDKGGNRALMAPEIANAKPGTFSWLNYKKSDLWAVGAIAYEIFNIDNPFYDKTMKLLSKSYKEEDLPELPDTIPFIIRNLVSNMLSRSTNKRLDCDVAATVAQLYLWAPSSWLKENYTLPNSNEIIQWLLCLSSKVLCERDITARNKTNTMSESVSKAQYKGRRSLPEYELIASFLRRVRLHLVRKGLKWIQELHIYN
notes: PINK1 of Pediculus humanus corporis, amino acids 143–575, lacking the N-helix; also called PhPINK1 without the N-helix; the shorter PhPINK1 construct
stoichiometry N [3]: 2

Source: paper PMC8828467, “Activation mechanism of PINK1” (Nature, 2021)
